Biological target: the molecule itself
Assay: cryo-EM structure

B1: GroES (natural protein, E. coli)
chain: MNIRPLHDRVIVKRKEVETKSAGGIVLTGSAAAKSTRGEVLAVGNGRILENGEVKPLDVKVGDIVIFNDGYGVKSEKIDNEEVLIMSESDILAIVEA
- stoichiometry N: 7
